Data on four molecules can be found in PMC10397247.

Where two headings read alike, the source gives them in different places.

The target in one test is T1, 4H993-AA.
T1 chain: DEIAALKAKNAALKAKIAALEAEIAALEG
Description: two-hybrid library CCmax.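 Further: natural log of median RNA to DNA barcode read ratio; higher means stronger binding.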 The conditions noted are these: mean of both orientations.

The target in the next test is T2, 4H3343-AA.
T2 chain: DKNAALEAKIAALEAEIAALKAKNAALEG
Description: two-hybrid library CCmax.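 Further: natural log of median RNA to DNA barcode read ratio; higher means stronger binding.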 The conditions noted are these: mean of both orientations.

In the next test the target is T3, Q8-AA.
T3 chain: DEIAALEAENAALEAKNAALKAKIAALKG
Description: two-hybrid library CCmax.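 Further: natural log of median RNA to DNA barcode read ratio; higher means stronger binding.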 The conditions noted are these: mean of both orientations.

The target of the next test is T4, 4H3844-AA.
T4 chain: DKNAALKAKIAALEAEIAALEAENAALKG
Description: two-hybrid library CCmax.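 Further: natural log of median RNA to DNA barcode read ratio; higher means stronger binding.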 Conditions: mean of both orientations.

In the next test the target is T5, 4H2944-AA.
T5 chain: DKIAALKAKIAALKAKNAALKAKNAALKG
Description: two-hybrid library CCmax.

The target in the next test is T6, 4H454-AA.
T6 chain: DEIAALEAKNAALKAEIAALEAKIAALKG
Description: two-hybrid library CCmax. The conditions noted are these: mean of both orientations.

The next test addresses T7, Q3-AA.
T7 chain: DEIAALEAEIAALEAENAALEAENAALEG
Description: two-hybrid library CCmax. The conditions noted are these: mean of both orientations.

The next test concerns the target T8, Q7-AA.
T8 chain: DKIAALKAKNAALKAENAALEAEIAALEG
Description: two-hybrid library CCmax. Conditions: mean of both orientations.

The next test deals with T9, 4H717-AA.
T9 chain: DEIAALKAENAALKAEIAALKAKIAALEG
Description: two-hybrid library CCmax. Conditions: mean of both orientations.

For the next test, the target named is T10, 4H794-AA.
T10 chain: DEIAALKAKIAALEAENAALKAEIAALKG
Description: two-hybrid library CCmax. The conditions noted are these: mean of both orientations.

A further test deals with T11, 4H48-AA.
T11 chain: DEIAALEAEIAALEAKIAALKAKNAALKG
Description: two-hybrid library CCmax.

The next test has as its target T12, 4H566-AA.
T12 chain: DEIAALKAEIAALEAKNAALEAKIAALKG
Description: two-hybrid library CCmax. Conditions: mean of both orientations.

In another test the target is T13, 4H605-AA.
T13 chain: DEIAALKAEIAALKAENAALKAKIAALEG
Description: two-hybrid library CCmax. Conditions: mean of both orientations.

The target of the next test is T14, 4H780-AA.
T14 chain: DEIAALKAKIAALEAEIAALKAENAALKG
Description: two-hybrid library CCmax. The conditions noted are these: mean of both orientations.

A further test concerns the target T15, 4H335-AA.
T15 chain: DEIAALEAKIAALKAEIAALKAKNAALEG
Description: two-hybrid library CCmax. The conditions noted are these: mean of both orientations.

For a further test, the target named is T16, 4H429-AA.
T16 chain: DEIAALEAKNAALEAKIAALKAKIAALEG
Description: two-hybrid library CCmax. Conditions: mean of both orientations.

The next test addresses T17, 4H881-AA.
T17 chain: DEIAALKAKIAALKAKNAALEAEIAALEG
Description: two-hybrid library CCmax. The conditions noted are these: mean of both orientations.

Another test addresses T18, 4H317-AA.
T18 chain: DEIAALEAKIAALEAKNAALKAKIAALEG
Description: two-hybrid library CCmax. The conditions noted are these: mean of both orientations.

The next test has as its target T19, 4H2949-AA.
T19 chain: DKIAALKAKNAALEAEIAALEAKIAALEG
Description: two-hybrid library CCmax. The conditions noted are these: mean of both orientations.

The target of a further test is T20, 4H3921-AA.
T20 chain: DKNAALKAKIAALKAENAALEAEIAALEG
Description: two-hybrid library CCmax. The conditions noted are these: mean of both orientations.

The target in another test is T21, 4H342-AA.
T21 chain: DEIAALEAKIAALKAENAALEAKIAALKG
Description: two-hybrid library CCmax. Conditions: mean of both orientations.

The next test deals with T22, 4H3627-AA.
T22 chain: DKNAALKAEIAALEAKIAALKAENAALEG
Description: two-hybrid library CCmax.

A further test concerns the target T23, 4H3112-AA.
T23 chain: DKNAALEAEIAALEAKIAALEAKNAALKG
Description: two-hybrid library CCmax. The conditions noted are these: mean of both orientations.

A further test addresses T24, 4H3606-AA.
T24 chain: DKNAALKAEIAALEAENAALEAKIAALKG
Description: two-hybrid library CCmax. Conditions: mean of both orientations.

For the next test, the target named is T25, 4H906-AA.
T25 chain: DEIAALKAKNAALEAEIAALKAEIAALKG
Description: two-hybrid library CCmax. Conditions: mean of both orientations.

For a further test, the target named is T26, 4H3655-AA.
T26 chain: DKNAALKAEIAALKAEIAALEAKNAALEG
Description: two-hybrid library CCmax. Conditions: mean of both orientations.

Another test addresses T27, 4H3718-AA.
T27 chain: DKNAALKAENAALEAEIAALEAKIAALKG
Description: two-hybrid library CCmax.

For the next test, the target named is T28, 4H678-AA.
T28 chain: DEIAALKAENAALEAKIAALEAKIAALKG
Description: two-hybrid library CCmax. The conditions noted are these: mean of both orientations.

A further test addresses T29, 4H3427-AA.
T29 chain: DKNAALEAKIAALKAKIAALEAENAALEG
Description: two-hybrid library CCmax. The conditions noted are these: mean of both orientations.

A further test deals with T30, 4H3041-bH.
T30 chain: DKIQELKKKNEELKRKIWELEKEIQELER
Description: two-hybrid library CCNG1.

Another test has as its target T31, 4H730-bH.
T31 chain: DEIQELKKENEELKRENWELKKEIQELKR
Description: two-hybrid library CCNG1.

The target in another test is T32, 4H264-bH.
T32 chain: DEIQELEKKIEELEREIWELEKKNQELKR
Description: two-hybrid library CCNG1.

Another test addresses T33, 4H796-bH.
T33 chain: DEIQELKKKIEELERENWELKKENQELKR
Description: two-hybrid library CCNG1.

For the next test, the target named is T34, 4H932-bH.
T34 chain: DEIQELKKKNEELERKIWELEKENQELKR
Description: two-hybrid library CCNG1.

The target of a further test is T35, 4H2233-bH.
T35 chain: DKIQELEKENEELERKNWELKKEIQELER
Description: two-hybrid library CCNG1.

For another test, the target named is T36, 4H3364-bH.
T36 chain: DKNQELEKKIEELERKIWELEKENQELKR
Description: two-hybrid library CCNG1.

Another test addresses T37, 4H2518-bH.
T37 chain: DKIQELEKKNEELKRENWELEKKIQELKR
Description: two-hybrid library CCNG1.

The next test has as its target T38, 4H949-bH.
T38 chain: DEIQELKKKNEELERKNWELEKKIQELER
Description: two-hybrid library CCNG1.

The next test concerns the target T39, 4H56-bH.
T39 chain: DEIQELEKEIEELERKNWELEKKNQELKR
Description: two-hybrid library CCNG1.

The target in the next test is T40, 4H2585-bH.
T40 chain: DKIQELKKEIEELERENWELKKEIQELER
Description: two-hybrid library CCNG1.

The next test has as its target T41, O5.
T41 chain: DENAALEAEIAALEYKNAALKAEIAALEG
Description: two-hybrid library CCNG1.

In another test the target is T42, 4H3297-bH.
T42 chain: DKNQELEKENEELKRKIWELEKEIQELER
Description: two-hybrid library CCNG1.

Another test addresses T43, 4H2444-bH.
T43 chain: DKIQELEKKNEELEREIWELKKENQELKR
Description: two-hybrid library CCNG1.

Another test has as its target T44, 4H2859-bH.
T44 chain: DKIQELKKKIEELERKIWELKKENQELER
Description: two-hybrid library CCNG1.

A further test deals with T45, 4H3381-bH.
T45 chain: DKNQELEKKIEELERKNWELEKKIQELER
Description: two-hybrid library CCNG1.

The target in a further test is T46, 4H2760-bH.
T46 chain: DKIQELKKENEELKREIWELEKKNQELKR
Description: two-hybrid library CCNG1.

The target of another test is T47, 4H319-bH.
T47 chain: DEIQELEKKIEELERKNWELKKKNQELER
Description: two-hybrid library CCNG1.

Another test addresses T48, 4H349-bH.
T48 chain: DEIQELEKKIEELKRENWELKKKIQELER
Description: two-hybrid library CCNG1.

The next test has as its target T49, 4H235-bH.
T49 chain: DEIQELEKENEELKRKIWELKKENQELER
Description: two-hybrid library CCNG1.

A further test has as its target T50, 4H2931-bH.
T50 chain: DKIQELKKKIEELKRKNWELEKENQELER
Description: two-hybrid library CCNG1.

A further test has as its target T51, 4H2253-bH.
T51 chain: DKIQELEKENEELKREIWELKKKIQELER
Description: two-hybrid library CCNG1.

Another test addresses T52, 4H3865-AA.
T52 chain: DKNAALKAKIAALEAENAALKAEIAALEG
Description: two-hybrid library CCmax. The conditions noted are these: mean of both orientations.

The target of a further test is T53, 4H697-AA.
T53 chain: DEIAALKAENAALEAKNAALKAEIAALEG
Description: two-hybrid library CCmax. The conditions noted are these: mean of both orientations.

A further test addresses T54, 4H384-AA.
T54 chain: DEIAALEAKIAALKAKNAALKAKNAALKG
Description: two-hybrid library CCmax. Conditions: mean of both orientations.

For the next test, the target named is T55, 4H982-AA.
T55 chain: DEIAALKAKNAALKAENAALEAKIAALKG
Description: two-hybrid library CCmax. Conditions: mean of both orientations.

B1: 4H2944-AA (peptide)
chain: DKIAALKAKIAALKAKNAALKAKNAALKG
As to B1, the interaction score with 4H993-AA is -2.01; with 4H3343-AA, -1.17; in the test with Q8-AA, -1.55; in the test with 4H3844-AA, 0.407; with 4H2944-AA, -1.62; with 4H454-AA, -1.8. Besides, the interaction score with Q3-AA was 1.67; with Q7-AA it was -1.77; with 4H717-AA it was -1.69; with 4H794-AA, -1.89; with 4H48-AA, -1.33; in the test with 4H566-AA it was 0.106. Also, the interaction score is -1.34 in the test with 4H605-AA; -1.43 in the test with 4H780-AA; -1.7 with 4H335-AA; -1.71 with 4H429-AA; -0.992 with 4H881-AA; -1.04 with 4H317-AA. Besides, the interaction score in the test with 4H2949-AA was -1.55; in the test with 4H3921-AA, -0.731; in the test with 4H342-AA, 1.12; with 4H3627-AA (mean of both orientations), -0.579; in the test with 4H3112-AA it was -0.15; with 4H3606-AA it was -0.0316. For the same molecule, the interaction score was -1.83 with 4H906-AA; -0.297 with 4H3655-AA; -0.87 with 4H3718-AA (mean of both orientations); -1.67 in the test with 4H678-AA; -0.0703 with 4H3427-AA.

B2: 4H3627-AA (peptide)
chain: DKNAALKAEIAALEAKIAALKAENAALEG
As to B2, the interaction score was -1.08 in the test with 4H993-AA; -0.702 in the test with Q8-AA; 1.03 with 4H3844-AA; 0.554 with 4H454-AA; -1.24 with Q3-AA; -1.97 with Q7-AA. Also, the interaction score with 4H717-AA was -1.79; with 4H794-AA, -1.93; with 4H48-AA (mean of both orientations) it was -0.478; with 4H566-AA, -0.771; in the test with 4H605-AA it was -1.4; with 4H780-AA it was -1. In addition, the interaction score with 4H429-AA is -1.09; in the test with 4H881-AA it was -1.04; with 4H3921-AA it was -1.63; with 4H3627-AA it was 0.53; in the test with 4H906-AA, -1.34; with 4H3655-AA, -0.0982. Moreover, the interaction score in the test with 4H3718-AA (mean of both orientations) was -0.468; with 4H678-AA, -1.31.

B3: 4H2233-bH (peptide)
chain: DKIQELEKENEELERKNWELKKEIQELER
On to B3, for which the interaction score with 4H3041-bH is -0.641; with 4H730-bH, -0.961; with 4H264-bH, -0.0896; with 4H796-bH it was -0.815; with 4H932-bH, -1.01; with 4H2233-bH it was 0.18. Also, the interaction score is -0.899 with 4H3364-bH; 1.4 with 4H2518-bH; -0.96 in the test with 4H949-bH; -1.28 in the test with 4H56-bH; -0.529 with 4H2585-bH; -1.37 with O5. Besides, the interaction score was -0.069 with 4H3297-bH; -0.446 with 4H2444-bH; -0.442 with 4H2859-bH; -0.723 with 4H3381-bH; -0.804 with 4H2760-bH; -0.931 in the test with 4H319-bH. Besides, the interaction score in the test with 4H349-bH was 0.0715; with 4H235-bH, -0.93; with 4H2931-bH, -0.862; with 4H2253-bH it was -0.0513.

B4: 4H3718-AA (peptide)
chain: DKNAALKAENAALEAEIAALEAKIAALKG
On to B4, for which the interaction score with Q8-AA is 1.05; with Q3-AA, -1.46; in the test with Q7-AA, -0.973; in the test with 4H3865-AA it was -1.49; with 4H697-AA, -0.465; with 4H384-AA it was 0.145. Further, the interaction score with 4H3718-AA is -0.586; in the test with 4H982-AA, -1.15.
